The values that follow come from PMC3383883 (ACS Nano, 2012).

The target of the experiment is bovine serum albumin (Bos taurus, UniProt P02769). Description: carbon nanotube field-effect transistor.
Sequence of bovine serum albumin (P02769 25-607): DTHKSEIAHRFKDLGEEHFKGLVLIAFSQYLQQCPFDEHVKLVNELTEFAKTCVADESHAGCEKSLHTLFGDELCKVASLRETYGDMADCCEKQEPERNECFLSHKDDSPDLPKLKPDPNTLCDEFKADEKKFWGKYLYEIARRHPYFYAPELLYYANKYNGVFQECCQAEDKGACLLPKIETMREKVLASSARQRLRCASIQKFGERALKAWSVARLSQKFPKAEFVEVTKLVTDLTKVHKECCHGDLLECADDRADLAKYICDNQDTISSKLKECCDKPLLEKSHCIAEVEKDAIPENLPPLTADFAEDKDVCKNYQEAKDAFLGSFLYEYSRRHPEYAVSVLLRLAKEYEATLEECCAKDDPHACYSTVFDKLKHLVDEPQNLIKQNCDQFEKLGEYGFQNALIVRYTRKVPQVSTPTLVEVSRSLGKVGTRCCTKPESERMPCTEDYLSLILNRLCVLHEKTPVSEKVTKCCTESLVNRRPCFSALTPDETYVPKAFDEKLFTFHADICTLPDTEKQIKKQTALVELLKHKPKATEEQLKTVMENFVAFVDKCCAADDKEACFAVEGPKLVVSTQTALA

B1: anti-OPN 23C3 scFv (scFv, V domains shown)
VH: EVQLVESGGGLVQPKGSLKISCAASGFTFNIYAMNWVRQAPGKGLEWVARIRSQSNNYTTYYADSVKDRFTISRDDSQSMLYLQMNNLKTEDTAMYYCVRQMGDYWGQGTTLTVSS
VL: YIQMTQSPASLSVSVGETVTITCRASENIYSFLAWYQQKQGKSPQLLVYAATNLADGVPSRFSGSGSGTQFSLKINSLQSEDFGTYYCQHFWGTPFTFGSGTKLEIK
B1: the binding result is “no binding (tested: 450 ng/mL)”.
